# Measured values reported in US20020132350.
# Biological target: MuA transposase (Bacteriophage Mu) (UniProt P07636)
# Test: cell_activity
# MuA transposase (Bacteriophage Mu), sequence (P07636 whole entry): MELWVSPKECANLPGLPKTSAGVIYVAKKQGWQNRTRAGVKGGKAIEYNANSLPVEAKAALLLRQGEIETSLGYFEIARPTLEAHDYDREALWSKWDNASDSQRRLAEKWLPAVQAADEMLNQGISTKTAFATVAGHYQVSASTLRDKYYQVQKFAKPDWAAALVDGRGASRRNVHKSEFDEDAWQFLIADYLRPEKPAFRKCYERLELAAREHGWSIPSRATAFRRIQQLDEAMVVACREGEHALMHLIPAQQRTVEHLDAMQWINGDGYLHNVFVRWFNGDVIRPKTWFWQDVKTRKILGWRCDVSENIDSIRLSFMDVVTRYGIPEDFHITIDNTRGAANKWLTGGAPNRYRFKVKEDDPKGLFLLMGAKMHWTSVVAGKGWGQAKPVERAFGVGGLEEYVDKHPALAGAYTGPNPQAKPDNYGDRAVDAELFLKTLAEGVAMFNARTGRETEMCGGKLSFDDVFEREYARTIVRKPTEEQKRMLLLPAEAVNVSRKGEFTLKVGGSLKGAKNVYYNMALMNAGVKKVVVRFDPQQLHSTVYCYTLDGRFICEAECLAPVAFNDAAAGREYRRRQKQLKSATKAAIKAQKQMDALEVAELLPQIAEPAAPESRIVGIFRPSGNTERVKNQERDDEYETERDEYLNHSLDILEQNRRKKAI
substance,measurement,setting,value
"PC-4 SpeI/BglII fragment (precleaved mini-Mu, inverted R1-R2-R3 ends flanking CAM)",activity,"induced MuA (0.5 mM IPTG), replicate 204, uninduced 1 and 3",240 colonies
same,activity,"preformed CDC (25 mM HEPES pH 7.6, 130 mM NaCl, 10 mM MgCl2, 15% DMSO, 15% glycerol, 30 C 1 h) electroporated into E. coli, 16 blue, 4 white, fragment without …",20 colonies
PC-4 fragment with lacZ-100 navigator via biotin/streptavidin,activity,"biotin/streptavidin bridge, induced MuA, uninduced 0",58 colonies
PC-4 SpeI/BglII fragment with attached lacZ-100 ssDNA navigator,activity,"same conditions, 26 blue, 5 white",31 colonies
